Measurements from the RNAGym collection of RNA variant scans (doi:10.1073/pnas.2313332121).
Variants at the floor of the assay were thinned out.

B1: TPR 5TU (parent)
chain: GGAUCUUCUCGAUCUAACAAAAAAGACAAAUCUGCCACAAAGCUUGAGAGCAUCUUCGGAUGCAGAGGCGGCAGCCUUCGGUGGCGCGAUAGCGCCAACGUUCUCAACUAUGACACGCAAAACGCGUGCUCCGUUGAAUGGAGUUUAUCAUG

Variants of: B1
Experiment: polymerase ribozyme fitness, log enrichment relative to wild type (log ratio); higher = more active; in vitro selection for triplet polymerase activity
How it was run: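 Genotype fitness is the logarithm of its enrichment divided by wild-type enrichment, using inverse-variance-weighted averages of replicates. That logarithm is base 2. Enrichment was measured by Illumina sequencing of input and output libraries from one triplicate in vitro selection round, with frozen incubation at −7 °C, on PCR-built, transcribed mutant libraries of each subunit of a heterodimeric triplet polymerase ribozyme, retaining genotypes with ≥10 input reads and ≥1 read per output.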

Row | Variant | polymerase ribozyme fitness (log ratio)
1 | GGAUCUUCUCGAUCUAACACAAAAGACAAAUCUGCCACAAAGCUUGAGAGCAUCUUCGGAUGCAGAGGCGGCAGCUUUCGGUGGUGCGAUAGCGUUAACGUUCUCAACUAUGACACGCAAAACGCGUGCUCCGUUGAAUGGAGUUUAUCAUG | -3.03
2 | GGAUCUUCUCGAUCUAACACAAAAGACAAAUCUGCCACAAAGCUUGAGAGCAUCUUCGGAUGCAGAGGCGGCAGCCUUCGGUGGCGAGAUAGCGCCAACGUUCUCAACUAUGACAUGCAAAACGCGUGCUCCGUUGAAUGGAGUUUAUCAUG | ≤ -4.2
3 | GGAUCUUCUCGAUCUAACACAAAAGACAAAUCUGCCACAAACCUUGAGAUCAUCUUCGGAUGCAGAGGCGGCAGCCUUCGGUGACGCGAUAGCGCCAAAGUUCUCAACUAUGACACGCAAAACGCGUGCUCCGUUGAAUGGAGUUUAUCAUG | ≤ -4.2
4 | GGAUCUUCUCGAUCUAACACAAAAGACAAAUCUGCCACAAAGCUUGAGAGCAUCUUCGGAUGCAGAGGCGGCAGCCUUCGGUGGUGCGAUAGCGCCAACGUUCUCAACUAUGACUCGCAAAACGCGUGCUCCGUUGAAUGGAGUUUAUCAUG | -1.06
5 | GGAUCUUCUCGAUCUAACACAAAAGACAAAUCUGCCACAAAGCUUGAGAGCAUCUUCGGAUGCAGAGGCGGCAGCGUUCGGUGGCGCGAUAGCGCCAACGUUCUCAACUAUGACACGCAAAACGCGUGCUCCGUUGAAUGGAGUUUAUCAUG | ≤ -4.2
6 | GGAUCUUCUCGAUCUAACACAAAAGACAAAUCUGCCACAAAGCUUGAGAGCAUCUUCGGAUGCAGAGGCGGCAGCCUUCGGUGGCGCGAUAGCGCCAAGGUUCUCAACUAUGACACGCAAAACGCGUGCUCCGUUGAAUGGAGUUUAUCAUG | -1.06
7 | GGAUCUUCUCGAUCUAACACAAAACACAAAUCUUCCACAAAGCUUGAGAGCAUAUUCGGAUGCAGAGGCGGCAGCCUUCGGUGGCGCGAUGGCGCCAACGUUCUCAACUAUGACACGCUAAUCUGGUGCUCCGUUGAAUGGAGUUUAUCAUG | ≤ -4.2
8 | GGAUCUUCUCGAUCUAACACAAAAGACAAAUCUGCCACAAAGCUUGAGAGCAUCUUCGGAUGCAGAGGCGGCAGCCUUCGGUGGCGCGAUAGCGCCAACGUUCUCAACUAUGACACGUAAAACGCGUGCUCCGUUGAAUGGAGUUUAUCAUG | -0.906
9 | GGAUCUUCUCGAUCUAACACAAAAGACAAAUCUGCCACAAAGCUUGAGAGCAUCUUCGGAUGCAGAGGCGGCAGCCUUCGGUGGCGCGAUAGGGCCAACGUUCUCAACUAUGACACGCAAAACGCGUGCUCCGUUGAAUGGAGUUUAUCAUG | -3.89
10 | GGAUCUUCUCGAUCUAACACAAAAGACAAAUCUGCCACAAAGCUUGAGAGCAUCUUCGGAUGCAGAGGCGGCAGCCUUCGGUGGCGCGAUAGUGCCAACGUUCUCAACUAUGACACGCAAAACGCGUGCUCCGUUGAAUGGAGUUUAUCAUG | -1.41
11 | GGAUCUUCUCGAUCUAACACAAAAGACAAAUCUGCCACAAAGCUUGAGAGCAUCUUCGGAUGCAGAGGCGGCAGCCUUCGGUGGUGCGGUAGCGCCAACGUUCUCGACUAUGACACGCAAAACGCGUGCUCCGUUGAAUGGAGUUUAUCAUG | -2.07
12 | GGAUCUUCUCGAUCUAACACAAAAGACAAAUCUGCCACAAAGCUUGAGAGCAUCUUCGGAUGCAGAGGCGGCAGCCUUCGGUGGAGCGAUAGCGCCAACGUUCUCAACUAUGACACGCAAAACGCCUGCUCCGUUGAAUGGAGAUUAUCAUG | -0.594
13 | GGAUCUUCUCGAUCUAACACAAAAGACAAAUCUGCCACAAAGCUUGAGAGCAUCUUCGGAUGCAGAGGCGGCAGCCUUCGGUGGUUCGAUAGAGCCAACGUUCUCAACUAUGACACGCUAGACGCGUGCUCCGUUGAAUGGAGUUUAUCAUG | -1.77
14 | GGAUCUUCUCGAUCUAACACAAAAUACAAAUCUGCCACAAAGCUUGAGAGAAUCUUCGGAUGCAGAGGCGGCAGCCGUCGGUGGCGCGAUAGCCCCAACGUUCUCAACUAUGACUCGCAAAACGCGUGCUCCGUUGAAUCGAGUUUAUCAUG | ≤ -4.2
15 | GGAUCUUCUCGAUCUAACACAAAAGACAAAUCUGCCACAAAGCUUGAGAGCAUCUUCGGAUGCAGAGGCGGCAGCCUUCGGUGGAGCGAUAGCGCCUACGUUCUCAACUAUGACACGCAAAACGCGUGCUCCGUUGAAUGGAGUUUAUCAUG | -3.02
16 | GGAUCUUCUCGAUCUAACACAAAAGACAAAUCUGCCACAAAGCUUGAGAGCAUCUUCGGAUGCAGAGGCGGCAGCAUUCGGUGGCGCGAUAGCGCCAACGUUCUCAACUAUGACACGCUAAACGCGUGCUCCGUUGAAUGGAGUUUAUCAUG | -1
17 | GGAUCUUCUCGAUCUAACACAAAAGACAAAUCUGCCACAAAGCUUGAGAGCAUCUUCGGAUGCAGAGGCGGCAGCCUUAGGUGGCGCGAUAGCCCCAACGUUCUCAACUAUGACACGCAAAACGCGUGCUCCGUUGAAUGGAGUUUAUCAUG | ≤ -4.2
18 | GGAUCUUCUCGAUCUAACACAAAAGACAAAUCUACCACAAAGCUUGGGAGCAUCUUCGGAUGCAGAGGCGGCAGCCUUCGGUGGCGCGAUAGCGCCAACGUUCGCAACUAUGACACGCAAAACGCGUGCGCCGUUGAAUGGAGUUUAUCGUG | ≤ -4.2
19 | GGAUCUUCUCGAUCUAACACAAAAGACAAAUCUGCCACAAAGCUUGAGAGCAUCUUCGGAUGCAGAGGCGGCAGCCUUCGGUGGCGCGAUAGCGCUAACGUUCUCAACUAUGACACGCAAAACGCGUGCUCCGUUGAAUGGAGUUUAUCAUG | -1.24
